For assay [1], the target named is TGF-β present in IFN-β-treated mouse 2D2-FIG splenocyte cultures (endogenous) (mouse). The assay is described as follows: cell-based or functional assay.
Assay [2] has as its target recombinant TGF-β1 (rat TGFβ1 sequence expressed in HEK cells, heat-activated) (rat) (UniProt P17246). Briefly: cell-based or functional assay.
Sequence of UniProt P17246 (P17246 279-390 limits assumed): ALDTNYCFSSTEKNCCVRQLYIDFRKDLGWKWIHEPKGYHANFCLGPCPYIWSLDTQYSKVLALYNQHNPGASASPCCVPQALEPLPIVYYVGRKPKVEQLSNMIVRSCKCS

B1: 1D11.16.8 anti-mouse-TGF-β1/2/3 mouse IgG1 mAb (antibody, from another filing, V domains shown)
VH: QVQLQQSGPELVRPGASVKLSCKASGYIFITYWMNWVKQRPGQGLEWIGQIFPASGSTNYNEMFEGKATLTVDTSSSTAYMQLSSLTSEDSAVYYCARGDGNYALDAMDYWGQGTSVTVSS
VL: DIVLTQSPASLAVSLGQRATISCRASESVDSYGNSFMHWYQQKSGQPPKLLIYLASNLESGVPARFSGSGSRTDFTLTIDPVEADDAATYYCQQNNEDPLTFGAGTKLEIK
For B1, the inhibition of IFN-β-induced FOXP3+ Treg induction (GFP) in MOG35-55-stimulated 2D2-FIG splenocytes, 7 days in assay [1] came to 1 µg/mL. In assay [2], the inhibition of TGF-β-induced FOXP3+ Treg induction (GFP) in MOG35-55-stimulated 2D2-FIG splenocytes, 7 days stood at 1 µg/mL.
